The supplement of paper PMC10567573

B1: LOXL2 (parent)
chain: FSPDGPSRFRKAYKPEQPLVRLRG

Variants of: B1
Experiment: protein stability index of a GFP-peptide fusion (GPS, HEK-293T) (PSI 1-6); higher = more stable
Conditions: c terminus: a fixed tail appended
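Note: lentivirally expressed fusions sorted by FACS into six bins by GFP to DsRed ratio, PSI derived from sequencing read proportions per bin multiplied by bin number.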

Q: Which protein stability index does the source give for FSPDGPSRFRKAYLPEQPLVRLRG [K14L] here?
A: Its protein stability index is 2.46.

Q: For FSPDGPSRFRKAYRPEQPLVRLRG [K14R], which protein stability index is on record?
A: Its protein stability index is 1.54.

Q: With FSPDGPSRFRKAYYPEQPLVRLRG [K14Y] as the variant, how does the protein stability index read?
A: Its protein stability index is 2.61.

Q: Which protein stability index does the source give for FSPDGPSRFRKAYEPEQPLVRLRG [K14E] here?
A: Its protein stability index is 1.83.

Q: Which protein stability index does the source give for FSPDGPSRFRKAYIPEQPLVRLRG [K14I] here?
A: The protein stability index was 2.86.

Q: With FSPDGPSRFRKAYGPEQPLVRLRG [K14G] as the variant, how does the protein stability index read?
A: The protein stability index was 2.32.

Q: Which protein stability index does the source give for FSPDGPSRFRKAYSPEQPLVRLRG [K14S] here?
A: Its protein stability index is 1.48.

Q: For FSPDGPSRFRKAYNPEQPLVRLRG [K14N], which protein stability index is on record?
A: The protein stability index was 2.35.

Q: Which protein stability index does the source give for FSPDGPSRFRKAYCPEQPLVRLRG [K14C] here?
A: Its protein stability index is 3.06.

Q: For FSPDGPSRFRKAYFPEQPLVRLRG [K14F], which protein stability index is on record?
A: The protein stability index was 1.72.

Q: Which protein stability index does the source give for FSPDGPSRFRKAYHPEQPLVRLRG [K14H] here?
A: The protein stability index was 2.06.

Q: For FSPDGPSRFRKAYMPEQPLVRLRG [K14M], which protein stability index is on record?
A: Its protein stability index is 2.19.

Q: Which protein stability index does the source give for FSPDGPSRFRKAYVPEQPLVRLRG [K14V] here?
A: The protein stability index was 2.71.

Q: With FSPDGPSRFRKAYDPEQPLVRLRG [K14D] as the variant, how does the protein stability index read?
A: The protein stability index was 1.86.

Q: With FSPDGPSRFRKAYWPEQPLVRLRG [K14W] as the variant, how does the protein stability index read?
A: Its protein stability index is 1.99.

Q: Which protein stability index does the source give for FSPDGPSRFRKAYAPEQPLVRLRG [K14A] here?
A: The protein stability index was 2.1.

Q: For FSPDGPSRFRKAYTPEQPLVRLRG [K14T], which protein stability index is on record?
A: The protein stability index was 3.59.

Q: For FSPDGPSRFRKAYQPEQPLVRLRG [K14Q], which protein stability index is on record?
A: The protein stability index was 1.76.

Q: For FSPDGPSRFRKAYPPEQPLVRLRG [K14P], which protein stability index is on record?
A: Its protein stability index is 1.95.

Q: Which protein stability index does the source give for FSPDGPSRFRKAYKPSQPLVRLRG [E16S] here?
A: The protein stability index was 2.72.

Q: For FSPDGPSRFRKAYKPKQPLVRLRG [E16K], which protein stability index is on record?
A: Its protein stability index is 2.67.

Q: Which protein stability index does the source give for FSPDGPSRFRKAYKPVQPLVRLRG [E16V] here?
A: The protein stability index was 1.85.

Q: For FSPDGPSRFRKAYKPTQPLVRLRG [E16T], which protein stability index is on record?
A: The protein stability index was 2.09.

Q: With FSPDGPSRFRKAYKPGQPLVRLRG [E16G] as the variant, how does the protein stability index read?
A: Its protein stability index is 1.54.

Q: Which protein stability index does the source give for FSPDGPSRFRKAYKPQQPLVRLRG [E16Q] here?
A: Its protein stability index is 2.92.

Q: Which protein stability index does the source give for FSPDGPSRFRKAYKPFQPLVRLRG [E16F] here?
A: The protein stability index was 1.39.

Q: For FSPDGPSRFRKAYKPNQPLVRLRG [E16N], which protein stability index is on record?
A: The protein stability index was 1.64.

Q: Which protein stability index does the source give for FSPDGPSRFRKAYKPLQPLVRLRG [E16L] here?
A: Its protein stability index is 2.74.

Q: For FSPDGPSRFRKAYKPCQPLVRLRG [E16C], which protein stability index is on record?
A: The protein stability index was 2.49.

Q: For FSPDGPSRFRKAYKPAQPLVRLRG [E16A], which protein stability index is on record?
A: The protein stability index was 1.96.

Q: Which protein stability index does the source give for FSPDGPSRFRKAYKPPQPLVRLRG [E16P] here?
A: Its protein stability index is 1.72.

Q: With FSPDGPSRFRKAYKPYQPLVRLRG [E16Y] as the variant, how does the protein stability index read?
A: The protein stability index was 2.75.

Q: With FSPDGPSRFRKAYKPDQPLVRLRG [E16D] as the variant, how does the protein stability index read?
A: The protein stability index was 2.65.

Q: With FSPDGPSRFRKAYKPIQPLVRLRG [E16I] as the variant, how does the protein stability index read?
A: Its protein stability index is 3.39.

Q: Which protein stability index does the source give for FSPDGPSRFRKAYKPHQPLVRLRG [E16H] here?
A: Its protein stability index is 1.63.

Q: With FSPDGPSSFRKAYKPEQPLVRLRG [R8S] as the variant, how does the protein stability index read?
A: Its protein stability index is 2.66.

Q: For FSPDGPSYFRKAYKPEQPLVRLRG [R8Y], which protein stability index is on record?
A: Its protein stability index is 2.66.

Q: With FSPDGPSKFRKAYKPEQPLVRLRG [R8K] as the variant, how does the protein stability index read?
A: Its protein stability index is 1.27.

Q: For FSPDGPSNFRKAYKPEQPLVRLRG [R8N], which protein stability index is on record?
A: Its protein stability index is 1.71.

Q: With FSPDGPSLFRKAYKPEQPLVRLRG [R8L] as the variant, how does the protein stability index read?
A: Its protein stability index is 1.5.

Q: For FSPDGPSPFRKAYKPEQPLVRLRG [R8P], which protein stability index is on record?
A: Its protein stability index is 2.76.

Q: Which protein stability index does the source give for FSPDGPSWFRKAYKPEQPLVRLRG [R8W] here?
A: Its protein stability index is 3.95.

Q: Which protein stability index does the source give for FSPDGPSTFRKAYKPEQPLVRLRG [R8T] here?
A: The protein stability index was 2.1.

Q: With FSPDGPSQFRKAYKPEQPLVRLRG [R8Q] as the variant, how does the protein stability index read?
A: The protein stability index was 2.42.

Q: With FSPDGPSIFRKAYKPEQPLVRLRG [R8I] as the variant, how does the protein stability index read?
A: The protein stability index was 4.19.

Q: With FSPDGPSVFRKAYKPEQPLVRLRG [R8V] as the variant, how does the protein stability index read?
A: The protein stability index was 2.88.

Q: For FSPDGPSRLRKAYKPEQPLVRLRG [F9L], which protein stability index is on record?
A: Its protein stability index is 2.01.

Q: For FSPDGPSRNRKAYKPEQPLVRLRG [F9N], which protein stability index is on record?
A: Its protein stability index is 2.85.

Q: Which protein stability index does the source give for FSPDGPSRVRKAYKPEQPLVRLRG [F9V] here?
A: Its protein stability index is 2.05.

Q: For FSPDGPSRGRKAYKPEQPLVRLRG [F9G], which protein stability index is on record?
A: Its protein stability index is 3.03.

Q: With FSPDGPSRYRKAYKPEQPLVRLRG [F9Y] as the variant, how does the protein stability index read?
A: The protein stability index was 3.04.

Q: For FSPDGPSRARKAYKPEQPLVRLRG [F9A], which protein stability index is on record?
A: Its protein stability index is 2.52.

Q: Which protein stability index does the source give for FSPDGPSRDRKAYKPEQPLVRLRG [F9D] here?
A: The protein stability index was 3.29.

Q: For FSPDGPSRERKAYKPEQPLVRLRG [F9E], which protein stability index is on record?
A: Its protein stability index is 3.71.

Q: With FSPDGPSRKRKAYKPEQPLVRLRG [F9K] as the variant, how does the protein stability index read?
A: The protein stability index was 2.58.

Q: For FSPDGPSRCRKAYKPEQPLVRLRG [F9C], which protein stability index is on record?
A: Its protein stability index is 2.78.

Q: Which protein stability index does the source give for FSPDGPSRTRKAYKPEQPLVRLRG [F9T] here?
A: Its protein stability index is 2.27.

Q: With FSPDGPSRSRKAYKPEQPLVRLRG [F9S] as the variant, how does the protein stability index read?
A: The protein stability index was 2.56.

Q: Which protein stability index does the source give for FSPDGPSRRRKAYKPEQPLVRLRG [F9R] here?
A: Its protein stability index is 2.58.

Q: With FSPDGPSRMRKAYKPEQPLVRLRG [F9M] as the variant, how does the protein stability index read?
A: The protein stability index was 2.56.

Q: Which protein stability index does the source give for FSPDGPSRPRKAYKPEQPLVRLRG [F9P] here?
A: The protein stability index was 3.29.

Q: For FSPDGPSRIRKAYKPEQPLVRLRG [F9I], which protein stability index is on record?
A: The protein stability index was 2.23.

Q: With FSPDGPSRHRKAYKPEQPLVRLRG [F9H] as the variant, how does the protein stability index read?
A: The protein stability index was 2.81.

Q: With FSPDGPSRQRKAYKPEQPLVRLRG [F9Q] as the variant, how does the protein stability index read?
A: Its protein stability index is 3.94.

Q: With FSPDGPSRWRKAYKPEQPLVRLRG [F9W] as the variant, how does the protein stability index read?
A: The protein stability index was 2.45.

Q: For FSPDGPSRFRKAYKPETPLVRLRG [Q17T], which protein stability index is on record?
A: The protein stability index was 1.5.

Q: With FSPDGPSRFRKAYKPELPLVRLRG [Q17L] as the variant, how does the protein stability index read?
A: The protein stability index was 2.03.

Q: Which protein stability index does the source give for FSPDGPSRFRKAYKPEIPLVRLRG [Q17I] here?
A: Its protein stability index is 2.18.

Q: With FSPDGPSRFRKAYKPEDPLVRLRG [Q17D] as the variant, how does the protein stability index read?
A: Its protein stability index is 2.08.

Q: Which protein stability index does the source give for FSPDGPSRFRKAYKPEFPLVRLRG [Q17F] here?
A: The protein stability index was 2.74.

Q: With FSPDGPSRFRKAYKPEMPLVRLRG [Q17M] as the variant, how does the protein stability index read?
A: The protein stability index was 2.48.

Q: For FSPDGPSRFRKAYKPEKPLVRLRG [Q17K], which protein stability index is on record?
A: Its protein stability index is 1.54.

Q: For FSPDGPSRFRKAYKPEAPLVRLRG [Q17A], which protein stability index is on record?
A: The protein stability index was 2.07.

Q: With FSPDGPSRFRKAYKPEEPLVRLRG [Q17E] as the variant, how does the protein stability index read?
A: The protein stability index was 4.03.

Q: With FSPDGPSRFRKAYKPECPLVRLRG [Q17C] as the variant, how does the protein stability index read?
A: Its protein stability index is 2.65.

Q: Which protein stability index does the source give for FSPDGPSRFRKAYKPEPPLVRLRG [Q17P] here?
A: Its protein stability index is 2.81.

Q: For FSPDGPSRFRKAYKPEHPLVRLRG [Q17H], which protein stability index is on record?
A: The protein stability index was 1.46.

Q: For FSPDGPSRFRKAYKPEGPLVRLRG [Q17G], which protein stability index is on record?
A: The protein stability index was 2.53.

Q: With FSPDGPSRFRKAYKPESPLVRLRG [Q17S] as the variant, how does the protein stability index read?
A: The protein stability index was 2.25.

Q: Which protein stability index does the source give for FSPDGPSRFRKAYKPERPLVRLRG [Q17R] here?
A: The protein stability index was 1.57.

Q: For FSPDGPSRFRKAYKPEVPLVRLRG [Q17V], which protein stability index is on record?
A: The protein stability index was 2.21.

Q: With FSPDGPSRFRKAYKPEWPLVRLRG [Q17W] as the variant, how does the protein stability index read?
A: Its protein stability index is 1.28.

Q: For FSPDGPSRFRKAYKPENPLVRLRG [Q17N], which protein stability index is on record?
A: The protein stability index was 1.4.

Q: With FSPDGPSRFRKACKPEQPLVRLRG [Y13C] as the variant, how does the protein stability index read?
A: Its protein stability index is 3.06.

Q: Which protein stability index does the source give for FSPDGPSRFRKAVKPEQPLVRLRG [Y13V] here?
A: The protein stability index was 3.86.

Q: For FSPDGPSRFRKAAKPEQPLVRLRG [Y13A], which protein stability index is on record?
A: Its protein stability index is 2.05.

Q: With FSPDGPSRFRKANKPEQPLVRLRG [Y13N] as the variant, how does the protein stability index read?
A: Its protein stability index is 2.15.

Q: For FSPDGPSRFRKADKPEQPLVRLRG [Y13D], which protein stability index is on record?
A: Its protein stability index is 3.33.

Q: With FSPDGPSRFRKAMKPEQPLVRLRG [Y13M] as the variant, how does the protein stability index read?
A: The protein stability index was 1.54.

Q: With FSPDGPSRFRKAFKPEQPLVRLRG [Y13F] as the variant, how does the protein stability index read?
A: Its protein stability index is 1.91.

Q: Which protein stability index does the source give for FSPDGPSRFRKALKPEQPLVRLRG [Y13L] here?
A: The protein stability index was 1.97.

Q: With FSPDGPSRFRKAWKPEQPLVRLRG [Y13W] as the variant, how does the protein stability index read?
A: The protein stability index was 3.28.

Q: Which protein stability index does the source give for FSPDGPSRFRKAIKPEQPLVRLRG [Y13I] here?
A: The protein stability index was 1.54.

Q: Which protein stability index does the source give for FSPDGPSRFRKATKPEQPLVRLRG [Y13T] here?
A: The protein stability index was 1.69.
